Reference: IntAct's records for PubMed 23169619

B1: Protein TIFY 7 (Arabidopsis thaliana (Mouse-ear cress)), Q8W4J8 (parent)
chain: MERDFLGLSDKQYLSNNVKHEVNDDAVEERGLSTKAAREWGKSKVFATSSFMPSSDFQEAKAFPGAYQWGSVSAANVFRRCQFGGAFQNATPLLLGGSVPLPTHPSLVPRVASSGSSPQLTIFYGGTISVFNDISPDKAQAIMLCAGNGLKGETGDSKPVREAERMYGKQIHNTAATSSSSATHTDNFSRCRDTPVAATNAMSMIESFNAAPRNMIPSVPQARKASLARFLEKRKERLMSAMPYKKMLLDLSTGESSGMNYSSTSPT
partner: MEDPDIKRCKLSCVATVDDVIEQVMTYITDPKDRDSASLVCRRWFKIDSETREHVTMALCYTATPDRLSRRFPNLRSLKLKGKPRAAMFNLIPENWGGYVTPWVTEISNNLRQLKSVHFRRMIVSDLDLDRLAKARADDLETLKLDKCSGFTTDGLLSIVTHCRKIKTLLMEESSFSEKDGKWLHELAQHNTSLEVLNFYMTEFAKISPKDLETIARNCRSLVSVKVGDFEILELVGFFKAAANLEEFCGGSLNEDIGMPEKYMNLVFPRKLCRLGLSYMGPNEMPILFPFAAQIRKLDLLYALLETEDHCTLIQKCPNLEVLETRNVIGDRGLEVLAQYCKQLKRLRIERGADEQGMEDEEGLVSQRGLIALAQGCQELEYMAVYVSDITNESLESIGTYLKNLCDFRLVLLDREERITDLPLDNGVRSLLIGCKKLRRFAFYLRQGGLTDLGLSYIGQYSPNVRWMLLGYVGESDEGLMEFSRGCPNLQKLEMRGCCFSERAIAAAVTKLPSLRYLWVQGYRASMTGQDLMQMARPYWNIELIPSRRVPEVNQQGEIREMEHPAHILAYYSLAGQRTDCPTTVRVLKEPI
B2: Protein TIFY 7 (Arabidopsis thaliana (Mouse-ear cress)), Q8W4J8 (parent)
chain: B1 chain

Variants of: B1
Conditions: with coi1_arath COI1, O04197

Question: Which “effect of a mutation on the interaction” value does the source give for R223A;K224A here?
Answer: The value was “disrupting interaction strength”.

Question: K233A;R234A was tested. Which “effect of a mutation on the interaction” value did it give?
Answer: The value was “disrupting interaction strength”.

Question: With K233A;R234A;K235A as the variant, how does the “effect of a mutation on the interaction” value read?
Answer: The value was “disrupting interaction strength”.

Question: With R234A as the variant, how does the “effect of a mutation on the interaction” value read?
Answer: The value was “disrupting interaction strength”.

Variants of: B2
Conditions: with myc2_arath MYC2, Q39204
Chain of myc2_arath MYC2, Q39204 (Q39204 whole entry): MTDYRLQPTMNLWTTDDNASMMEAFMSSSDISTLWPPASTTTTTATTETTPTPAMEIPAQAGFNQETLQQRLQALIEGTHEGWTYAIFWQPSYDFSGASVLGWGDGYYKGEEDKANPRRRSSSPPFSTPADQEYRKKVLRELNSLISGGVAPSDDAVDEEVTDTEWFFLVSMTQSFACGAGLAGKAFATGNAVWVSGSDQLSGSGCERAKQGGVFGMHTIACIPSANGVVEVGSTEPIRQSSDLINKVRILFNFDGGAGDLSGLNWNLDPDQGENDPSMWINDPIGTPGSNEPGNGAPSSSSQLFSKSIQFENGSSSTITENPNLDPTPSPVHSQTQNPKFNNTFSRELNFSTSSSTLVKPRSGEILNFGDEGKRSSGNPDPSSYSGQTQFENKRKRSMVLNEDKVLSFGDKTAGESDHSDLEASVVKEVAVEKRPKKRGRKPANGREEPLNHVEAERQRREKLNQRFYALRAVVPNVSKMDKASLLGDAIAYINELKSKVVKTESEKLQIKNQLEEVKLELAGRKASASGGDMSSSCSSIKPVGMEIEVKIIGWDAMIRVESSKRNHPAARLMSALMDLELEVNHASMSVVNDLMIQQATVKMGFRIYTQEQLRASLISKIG

Question: K233A;R234A was tested. Which “effect of a mutation on the interaction” value did it give?
Answer: The value was “disrupting interaction strength”.

Question: How did the “effect of a mutation on the interaction” value turn out when K233A;R234A;K235A was run?
Answer: Its value is “disrupting interaction strength”.

Question: With R234A as the variant, how does the “effect of a mutation on the interaction” value read?
Answer: Its value is “disrupting interaction strength”.
